Source: patent US5695964

Assays:
[1] = biological target: bovine thrombin (bovine) (UniProt P00735); details: scale: relative activity
[2] = biological target: human fibrinogen (human) (UniProt P02671)
[3] = biological target: bovine thrombin (bovine) (UniProt P00735)
[4] = biological target: DIP-thrombin agarose; assay: chromatography on DIP-thrombin agarose

Chain of recombinant human urine thrombomodulin ruTM-Ala (receptor) (chain): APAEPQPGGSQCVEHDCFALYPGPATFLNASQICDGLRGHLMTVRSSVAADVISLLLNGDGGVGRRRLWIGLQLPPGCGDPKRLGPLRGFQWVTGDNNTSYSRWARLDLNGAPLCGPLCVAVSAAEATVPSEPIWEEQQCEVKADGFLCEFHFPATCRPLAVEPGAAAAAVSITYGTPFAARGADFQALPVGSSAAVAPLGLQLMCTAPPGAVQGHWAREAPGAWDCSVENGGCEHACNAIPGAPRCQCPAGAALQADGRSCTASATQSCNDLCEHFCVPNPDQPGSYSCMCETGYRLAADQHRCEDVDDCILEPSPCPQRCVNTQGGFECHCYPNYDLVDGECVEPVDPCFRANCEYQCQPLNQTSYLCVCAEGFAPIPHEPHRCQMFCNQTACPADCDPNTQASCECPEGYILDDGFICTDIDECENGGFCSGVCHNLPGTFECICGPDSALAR
Chain of pKCR-TM-Val-originated recombinant human urine thrombomodulin (receptor) (chain): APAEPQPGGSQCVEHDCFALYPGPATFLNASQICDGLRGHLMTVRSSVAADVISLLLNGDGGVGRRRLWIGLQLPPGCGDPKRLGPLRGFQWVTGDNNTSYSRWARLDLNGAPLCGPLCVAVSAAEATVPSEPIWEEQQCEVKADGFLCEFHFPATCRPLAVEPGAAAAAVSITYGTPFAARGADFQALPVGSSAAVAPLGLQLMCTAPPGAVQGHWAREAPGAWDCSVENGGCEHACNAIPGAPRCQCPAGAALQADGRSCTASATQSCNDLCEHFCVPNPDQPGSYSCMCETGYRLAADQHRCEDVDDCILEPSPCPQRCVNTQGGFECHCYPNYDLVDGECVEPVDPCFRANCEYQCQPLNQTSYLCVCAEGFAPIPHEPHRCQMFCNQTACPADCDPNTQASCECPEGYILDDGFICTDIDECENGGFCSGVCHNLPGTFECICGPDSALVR
Chain of mutation type recombinant human urine thrombomodulin in which 10 amino acid residues are deleted from the C-terminus of the human urine thrombomodulin (receptor) (chain): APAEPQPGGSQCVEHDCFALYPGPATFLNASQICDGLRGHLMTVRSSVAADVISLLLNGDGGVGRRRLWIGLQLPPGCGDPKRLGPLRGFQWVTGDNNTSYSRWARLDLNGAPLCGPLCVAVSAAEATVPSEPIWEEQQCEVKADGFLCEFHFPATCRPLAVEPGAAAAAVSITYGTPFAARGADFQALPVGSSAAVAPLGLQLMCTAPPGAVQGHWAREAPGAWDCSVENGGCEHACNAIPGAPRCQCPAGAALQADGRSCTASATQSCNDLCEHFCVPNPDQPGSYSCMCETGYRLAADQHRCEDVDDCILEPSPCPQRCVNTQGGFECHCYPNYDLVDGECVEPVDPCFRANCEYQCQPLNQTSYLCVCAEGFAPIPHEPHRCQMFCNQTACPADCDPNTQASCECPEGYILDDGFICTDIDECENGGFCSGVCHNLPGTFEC

Row | Substance | Protein C activating ability (relative activity) [1] | Coagulation time [2] [s] | Coagulation time [3] [s] | adsorbed by thrombin [4] [%]
1 | mutation type recombinant human urine thrombomodulin in which 10 amino acid residues are deleted from the C-terminus of the human urine thrombomodulin (receptor) | 4.1 |  |  | 
2 | bovine thrombin (from UniProt P00735) (enzyme) |  | 37.8 |  | 
3 | human placenta thrombomodulin (from UniProt P07204) (receptor) | 1 |  |  | 
4 | recombinant human urine thrombomodulin ruTM-Ala (receptor) | 3.8 |  | > 500 | 100
5 | pKCR-TM-Val-originated recombinant human urine thrombomodulin (receptor) |  |  | > 500 | 100
